Source: publication PMC5676692

Molecular target: integrin αVβ6 heterodimer (integrin alpha-V, ITGAV, and integrin beta-6, ITGB6) (human (endogenous in HEK293T)) (UniProt P18564)
Sequence of UniProt P18564 (P18564 whole entry, looked up, one chain of several): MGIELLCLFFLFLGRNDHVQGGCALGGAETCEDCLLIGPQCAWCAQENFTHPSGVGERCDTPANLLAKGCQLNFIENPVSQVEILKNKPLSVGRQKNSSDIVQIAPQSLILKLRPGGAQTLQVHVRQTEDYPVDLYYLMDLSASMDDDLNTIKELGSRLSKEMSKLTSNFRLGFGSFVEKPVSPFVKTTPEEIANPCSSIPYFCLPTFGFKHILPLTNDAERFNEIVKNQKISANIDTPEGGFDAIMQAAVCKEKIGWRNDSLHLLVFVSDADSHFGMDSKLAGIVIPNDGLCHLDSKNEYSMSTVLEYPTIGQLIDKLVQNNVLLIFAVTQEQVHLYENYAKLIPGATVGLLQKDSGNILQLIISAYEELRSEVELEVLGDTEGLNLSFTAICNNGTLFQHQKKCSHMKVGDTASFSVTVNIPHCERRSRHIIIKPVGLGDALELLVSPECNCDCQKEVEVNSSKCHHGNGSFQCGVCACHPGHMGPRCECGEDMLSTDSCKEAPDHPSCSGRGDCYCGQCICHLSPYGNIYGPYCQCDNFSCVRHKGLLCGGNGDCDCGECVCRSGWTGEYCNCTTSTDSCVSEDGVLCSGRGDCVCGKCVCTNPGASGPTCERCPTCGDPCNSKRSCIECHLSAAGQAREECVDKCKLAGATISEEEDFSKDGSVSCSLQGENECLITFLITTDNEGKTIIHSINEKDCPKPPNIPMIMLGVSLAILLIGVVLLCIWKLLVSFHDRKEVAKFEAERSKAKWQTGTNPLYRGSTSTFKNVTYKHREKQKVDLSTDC

## control AAV9 viral particle (unmodified AAV9 capsid) (from UniProt Q6JC40 1-736; Q6JC40 138-736; Q6JC40 203-736) (complex)
  AAV9-GFP transduction (GFP+ cells after 24 h) of HEK293T, Hela or U87 cells pre-treated for 2 h with 20 µg/ml of a mouse anti-human αVβ6 functional blocking antibody, against PBS control: 50%
